Legend:
[1] = biological target: mCAT-1, murine cationic amino acid transporter (ecotropic receptor) (mouse (endogenous in C17.2 NSCs and NIH 3T3 fibroblasts; Mus dunni fibroblasts in the infectious center assay)) (UniProt Q09143)
[2] = biological target: mCAT-1, murine cationic amino acid transporter (ecotropic receptor) (mouse (endogenous in C17.2 NSCs and NIH 3T3 fibroblasts; Mus dunni fibroblasts in the infectious center assay)) (UniProt Q09143); remark: listed apart in the source
[3] = biological target: mCAT-1, murine cationic amino acid transporter (ecotropic receptor) (mouse (endogenous in C17.2 NSCs and NIH 3T3 fibroblasts; Mus dunni fibroblasts in the infectious center assay)) (UniProt Q09143); remark: listed apart in the source

Sequence of UniProt Q09143 (Q09143 whole entry): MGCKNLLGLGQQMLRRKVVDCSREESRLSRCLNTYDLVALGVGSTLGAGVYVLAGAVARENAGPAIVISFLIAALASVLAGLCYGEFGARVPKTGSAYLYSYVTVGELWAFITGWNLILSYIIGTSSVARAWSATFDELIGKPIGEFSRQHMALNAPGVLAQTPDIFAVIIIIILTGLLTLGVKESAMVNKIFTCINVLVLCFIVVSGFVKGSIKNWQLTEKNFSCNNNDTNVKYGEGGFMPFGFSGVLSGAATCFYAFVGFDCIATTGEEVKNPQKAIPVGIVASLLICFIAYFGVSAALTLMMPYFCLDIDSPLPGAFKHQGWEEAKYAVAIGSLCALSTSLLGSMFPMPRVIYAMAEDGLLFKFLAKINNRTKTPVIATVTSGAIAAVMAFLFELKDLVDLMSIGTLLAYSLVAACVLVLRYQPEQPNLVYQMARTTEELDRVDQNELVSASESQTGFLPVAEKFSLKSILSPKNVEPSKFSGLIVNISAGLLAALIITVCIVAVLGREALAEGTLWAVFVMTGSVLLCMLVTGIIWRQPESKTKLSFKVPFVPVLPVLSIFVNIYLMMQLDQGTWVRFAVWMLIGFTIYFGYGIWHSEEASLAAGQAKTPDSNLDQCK

CasBrE SU (surface subunit of the CasBrE Env, made from the CasES vector without the TM subunit) (domain or fragment)
infectious center assay: CasES+4070A-NSCs on DunniAm; infectious center efficiency (foci per 100 NSCs divided by plating efficiency) [1]: 109% | infectious center assay: CasES+4070A-NSCs seeded on 4070A-infected dunni fibroblasts (DunniAm); vector-positive foci per 100 NSCs seeded (foci per 100 NSCs seeded) [1]: 18 | virus titration: vector titre of CasES+4070A-NSC supernatant on 4070A-infected 3T3 cells (3T3Am, amphotropic receptor blocked) against naive 3T3 cells (orders of magnitude) [2]: > 3 | superinfection interference: reduction of the titre of the ecotropic virus Fr57E on CasES-NSCs (without 4070A) against control NSCs [3]: 1 log | superinfection interference: reduction of the titre of the ecotropic virus Fr57E on CasES-NSCs infected with 4070A [3]: 5 logs

From PMC2998453
